Reference: publication PMC6063399, “Thiol-maleimide poly(ethylene glycol) crosslinking of L-asparaginase subunits at recombinant cysteine residues introduced by mutagenesis” (PLoS ONE, 2018)

Molecular target: the molecule itself
Assay: SEC; Superdex 200 10/300 GL in crosslinking buffer (0.1 M potassium phosphate, 5 mM EDTA, 0.150 M NaCl, pH 6.5-7.0), 0.75 ml/min; mutant reduced with TCEP before loading; fractions followed by A280 and catalytic activity; starting solution of low purity

B1: L-asparaginase mutant A38C-T263C (enzyme, E. coli, UniProt P00805 23-348, looked up)
chain: LPNITILATGGTIAGGGDSATKSNYTVGKVGVENLVNCVPQLKDIANVKGEQVVNIGSQDMNDNVWLTLAKKINTDCDKTDGFVITHGTDTMEETAYFLDLTVKCDKPVVMVGAMRPSTSMSADGPFNLYNAVVTAADKASANRGVLVVMNDTVLDGRDVTKTNTTDVATFKSVNYGPLGYIHNGKIDYQRTPARKHTSDTPFDVSKLNELPKVGIVYNYANASDLPAKALVDAGYDGIVSAGVGNGNLYKSVFDTLATAAKCGTAVVRSSRVPTGATTQDAEVDDAKYGFVASGTLNPQKARVLLQLALTQTKDPQQIQQIFNQY
notes: L-asparaginase II of E. coli (ansB), expressed with its natural signal peptide, which was excised; In the cross-linking experiments the two introduced cysteines were reacted with Bi-MAL-PEG (2000 or 5000 g/mol) after reduction with TCEP; also called mutant L-asparaginase; precursor mutant
binding result: binds
